Data set [1] deals with the molecule itself. The experiment in a line: cell-based or functional assay.
Data set [2] concerns the target T1, integrin α4 overexpressed in HEK 293T cells (UniProt P13612 34-1032, limits assumed).
T1 construct: Tested in cell lysates; also called α4 integrin; pITGA4
T1 sequence (looked up): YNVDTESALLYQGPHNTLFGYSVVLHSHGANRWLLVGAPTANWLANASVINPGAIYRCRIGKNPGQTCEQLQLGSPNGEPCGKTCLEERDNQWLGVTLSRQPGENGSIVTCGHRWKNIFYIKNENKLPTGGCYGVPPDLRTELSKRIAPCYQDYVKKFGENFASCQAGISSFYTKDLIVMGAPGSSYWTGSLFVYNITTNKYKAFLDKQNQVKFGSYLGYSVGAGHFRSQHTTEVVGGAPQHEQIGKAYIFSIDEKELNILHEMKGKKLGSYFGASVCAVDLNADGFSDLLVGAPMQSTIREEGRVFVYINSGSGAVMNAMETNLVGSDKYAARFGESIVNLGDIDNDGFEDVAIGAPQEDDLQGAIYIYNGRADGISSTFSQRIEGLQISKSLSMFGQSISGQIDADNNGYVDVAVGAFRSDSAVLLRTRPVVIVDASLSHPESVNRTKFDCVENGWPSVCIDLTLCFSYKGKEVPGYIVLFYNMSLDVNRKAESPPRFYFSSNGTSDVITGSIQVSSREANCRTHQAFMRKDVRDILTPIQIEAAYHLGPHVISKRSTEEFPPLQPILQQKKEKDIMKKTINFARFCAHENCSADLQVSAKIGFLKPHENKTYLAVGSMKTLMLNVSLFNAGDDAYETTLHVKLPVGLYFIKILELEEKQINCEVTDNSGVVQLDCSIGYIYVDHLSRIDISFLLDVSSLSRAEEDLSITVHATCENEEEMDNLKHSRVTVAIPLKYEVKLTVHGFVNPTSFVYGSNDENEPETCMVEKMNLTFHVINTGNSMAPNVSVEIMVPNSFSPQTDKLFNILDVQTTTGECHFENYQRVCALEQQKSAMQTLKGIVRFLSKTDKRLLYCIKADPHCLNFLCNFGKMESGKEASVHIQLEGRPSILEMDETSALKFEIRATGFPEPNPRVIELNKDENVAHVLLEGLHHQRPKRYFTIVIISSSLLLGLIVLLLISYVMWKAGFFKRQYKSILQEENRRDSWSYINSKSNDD
The experiment in a line: co-immunoprecipitation from HEK 293T cells overexpressing the proteins. On the procedure:
Cells (approximately 2×10⁶) were washed one time with PBS and incubated in IP buffer (50 mM Tris-HCl [pH 7.4], 150 mM NaCl, 2 mM EDTA, 1 mM dithiothreitol, 1% Nonidet P-40 [NP-40]; or 10 mM imidazole, 100 mM NaCl, 1 mM MgCl₂, 5 mM EDTA, 1% Triton X-100, pH 7.4) containing 1× cOmplete protease inhibitor cocktail (Roche) for 10 min on ice. Cells were scraped from the plate and rotated at 4° C. for 10 min. Lysates were cleared by centrifugation at 20,000×g at 4° C. for 10 min. An equal amount of protein was added to total 500 microliters of IP buffer plus protease inhibitors (Roche). Antibodies (2 micrograms α-HA (Covance), α-myc (Covance), α-p120 (BD Transduction Laboratories), α-ITGA4 (Cell Signaling Technology, Inc.), mouse IgG1 control (AbD Serotec), or normal rabbit IgG control (R & D Systems)) were added and rotated overnight at 4° C. Subsequently, 20 microliters of protein A/G agarose beads (Santa Cruz Biotechnology, Inc.) were added per sample. After 2 h of rotation (4° C.), beads were washed 5 times in IP buffer containing protease inhibitors. 2× Laemmli buffer was added to the immunoprecipitates or total cell lysates saved prior to IP (input).

B1: human CDH26 (cadherin 26) expressed on transduced cells (receptor)
chain: DSVQQETDDLTKQTKEKIYQPLRRSKRRWVITTLELEEEDPGPFPKLIGELFNNMSYNMSLMYLISGPGVDEYPEIGLFSLEDHENGRIYVHRPVDREMTPSFTVYFDVVERSTGKIVDTSLIFNIRISDVNDHAPQFPEKEFNITVQENQSAGQPIFQMLAVDLDEENTPNSQVLYFLISQTPLLKESGFRVDRLSGEIRLSGCLDYETAPQFTLLIRARDCGEPSLSSTTTVHVDVQEGNNHRPAFTQENYKVQIPEGRASQGVLRLLVQDRDSPFTSAWRAKFNILHGNEEGHFDISTDPETNEGILNVIKPLDYETRPAQSLIIVVENEERLVFCERGKLQPPRKAAASATVSVQVTDANDPPAFHPQSFIVNKEEGARPGTLLGTFNAMDPDSQIRYELVHDPANWVSVDKNSGVVITVEPIDRESPHVNNSFYVIIIHAVDDGFPPQTATGTLMLFLSDINDNVPTLRPRSRYMEVCESAVHEPLHIEAEDPDLEPFSDPFTFELDNTWGNAEDTWKLGRNWGQSVELLTLRSLPRGNYLVPLFIGDKQGLSQKQTVHVRICPCASGLTCVELADAEVGLHVGALFPVCAAFVALAVALLFLLRCYFVLEPKRHGCSVSNDEGHQTLVMYNAESKGTSAQTWSDVEGQRPALLICTAAAGPTQGVKDLEEVPPSAASQSAQARCALGSWGYGKPFEPRSVKNIHSTPAYPDATMHRQLLAPVEGRMAETLNQKLHVANVLEDDPGYLPHVYSEEGECGGAPSLSSLASLEQELQPDLLDSLGSKATPFEEIYSESGVPS
Turning to B1, the “phosphorylation of ERK upon calcium restoration” value in data set [1] is 11.6 fold.

B2: CDH1 (E-cadherin) overexpressed in HEK 293T cells (receptor, UniProt P12830 155-882, looked up)
chain: DWVIPPISCPENEKGPFPKNLVQIKSNKDKEGKVFYSITGQGADTPPVGVFIIERETGWLKVTEPLDRERIATYTLFSHAVSSNGNAVEDPMEILITVTDQNDNKPEFTQEVFKGSVMEGALPGTSVMEVTATDADDDVNTYNAAIAYTILSQDPELPDKNMFTINRNTGVISVVTTGLDRESFPTYTLVVQAADLQGEGLSTTATAVITVTDTNDNPPIFNPTTYKGQVPENEANVVITTLKVTDADAPNTPAWEAVYTILNDDGGQFVVTTNPVNNDGILKTAKGLDFEAKQQYILHVAVTNVVPFEVSLTTSTATVTVDVLDVNEAPIFVPPEKRVEVSEDFGVGQEITSYTAQEPDTFMEQKITYRIWRDTANWLEINPDTGAISTRAELDREDFEHVKNSTYTALIIATDNGSPVATGTGTLLLILSDVNDNAPIPEPRTIFFCERNPKPQVINIIDADLPPNTSPFTAELTHGASANWTIQYNDPTQESIILKPKMALEVGDYKINLKLMDNQNKDQVTTLEVSVCDCEGAAGVCRKAQPVEAGLQIPAILGILGGILALLILILLLLLFLRRRAVVKEPLLPPEDDTRDNVYYYDEEGGGEEDQDFDLSQLHRGLDARPEVTRNDVAPTLMSVPRYLPRPANPDEIGNFIDENLKAADTDPTAPPYDSLLVFDYEGSGSEAASLSSLNSSESDKDQDYDYLNEWGNRFKKLADMYGGGEDD
notes: Tested in cell lysates; also called pCDH1
In the case of B2, the binding result in data set [2] is reported as “no binding”.

For the origin of these results see US20180148492A1 (CHILDREN S HOSPITAL MEDICAL CENTER, published 2018).
